Laboratory results reported in article PMC5880808, “A lever-like transduction pathway for long-distance chemical- and mechano-gating of the mechanosensitive Piezo1 channel” (Nature Communications, 2018).

How the values were obtained:
Experiment in all cases: SEC; Superose-6 10/300 GL (FPLC) in 25 mM Na-PIPES pH 7.2, 140 mM NaCl, 2 mM DTT, 0.026% C12E10; oligomeric state judged from the peak position against wild-type mPiezo1
[1] = target: mPiezo1-ΔL15-16 (657-677) (mouse) (UniProt E2JF22)
[2] = target: mPiezo1-ΔL19-20 (870–921) (mouse) (UniProt E2JF22)
mouse Piezo1 (mouse) = mouse Piezo1 (mouse) (UniProt E2JF22); conditions: remark: other sources report otherwise

Substance: mPiezo1-ΔL15-16 (657-677), E2JF22 1-656; E2JF22 678-2547
- stoichiometry N [1]: 3

Substance: mPiezo1-ΔL19-20 (870–921), E2JF22 1-869; E2JF22 922-2547
- stoichiometry N [2]: 3

Substance: mouse Piezo1, E2JF22 1-2547
- stoichiometry N (mouse Piezo1 (mouse)): 3
